Among the data in article PMC2568859, “Hybrids of the bHLH and bZIP Protein Motifs Display Different DNA-Binding Activities In Vivo vs. In Vitro” are binding result and Kd values, retold here.

As usually defined, the Kd is a measure of binding affinity in units of concentration.

The target in series [1] is T1, ArntbHLH-C/EBP (Homo sapiens (Arnt isoform variant 3) / …, UniProt P27540-2 65-130+=RIR+P05554:317-345, internal_change). Kind of series: fluorescence anisotropy; up to 1 uM monomeric protein; data not shown; Buffer B: 100 mM Tris pH 7.4, 150 mM NaCl, 1 mM EDTA, 200 mM guanidine-HCl, 20% glycerol, 0.1 mg/mL acetylated BSA, 100 uM bp calf thymus DNA; 1 nM duplex; overnight 4 C then 22 C. Buffer C: 100 mM Tris pH 7.4, 150 mM NaCl, 1 mM EDTA, 1.0 ug/mL poly dI-dC. Buffer A: phosphate pH 7.4, 150 mM NaCl, 2.7 mM KCl, 1 mM EDTA, 800 mM urea, 20% glycerol, …. The note with it: protein: recombinant; (pET-28A(+), TALON purified); chain copies: 2; label: 5' 6-FAM on one strand; 24-mer duplex.
T1 sequence (P27540 other isoform, or with tags, fused parts or gaps): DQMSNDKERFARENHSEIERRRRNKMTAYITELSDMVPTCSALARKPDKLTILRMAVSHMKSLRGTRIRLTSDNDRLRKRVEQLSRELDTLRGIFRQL

For series [2], the target named is T2, ArntbHLH (Homo sapiens (isoform variant 3), UniProt P27540-2 65-130). Described as above. The note with it: protein: recombinant; chain copies: 2; label: 5' 6-FAM on one strand; 24-mer duplex.
T2 sequence (P27540 other isoform, or with tags, fused parts or gaps): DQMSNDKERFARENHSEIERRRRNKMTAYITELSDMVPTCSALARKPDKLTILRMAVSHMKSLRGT
Series [3] concerns the target T1, ArntbHLH-C/EBP. Kind of series: fluorescence anisotropy; Buffer C (no additives, 1.0 ug/mL poly dI-dC); single isotherm, plateau not reached; Hill ~2; Buffer B: 100 mM Tris pH 7.4, 150 mM NaCl, 1 mM EDTA, 200 mM guanidine-HCl, 20% glycerol, 0.1 mg/mL acetylated BSA, 100 uM bp calf thymus DNA; 1 nM duplex; overnight 4 C then 22 C. Buffer C: 100 mM Tris pH 7.4, 150 mM NaCl, 1 mM EDTA, 1.0 ug/mL poly dI-dC. Buffer A: phosphate pH 7.4, 150 mM NaCl, …. The note with it: protein: recombinant; (pET-28A(+), TALON purified); chain copies: 2; label: 5' 6-FAM on one strand; 24-mer duplex.

Series [4] concerns the target T2, ArntbHLH. The description is as above. The note with it: protein: recombinant; chain copies: 2; label: 5' 6-FAM on one strand; 24-mer duplex.

B1: nonspecific 24-mer duplex (dsDNA)
DNA 1: TGCAGGAATTCCAAGGTGAAGGTT
DNA 2: AACCTTCACCTTGGAATTCCTGCA
B1: the binding result in the series with ArntbHLH-C/EBP [1] and in the series with ArntbHLH [2] was “no binding” throughout.

B2: E-box 24-mer duplex (dsDNA)
DNA 1: TGCAGGAATCACGTGATGAAGGTT
DNA 2: AACCTTCATCACGTGATTCCTGCA
On to B2, for which the Kd with ArntbHLH-C/EBP [3] and with ArntbHLH [4] was about 350 nM throughout.
